# Source: patent US6790630 (NEW ENGLAND BIOLABS, dated 2004)
# T1: Erythrina cristagalli lectin (ECL), biotinylated (Erythrina cristagalli, UniProt P83410 1-239)
# T1 construct: Lectin
# T1 sequence: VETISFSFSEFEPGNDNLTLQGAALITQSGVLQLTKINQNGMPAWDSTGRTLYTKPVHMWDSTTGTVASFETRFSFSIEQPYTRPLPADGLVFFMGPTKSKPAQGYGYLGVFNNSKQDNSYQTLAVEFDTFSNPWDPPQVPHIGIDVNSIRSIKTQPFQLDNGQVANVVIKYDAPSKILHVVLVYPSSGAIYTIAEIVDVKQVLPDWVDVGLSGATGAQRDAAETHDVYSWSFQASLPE
# T2: Peanut agglutinin (PNA), biotinylated (UniProt P02872 24-259)
# T2 construct: Lectin
# T2 sequence: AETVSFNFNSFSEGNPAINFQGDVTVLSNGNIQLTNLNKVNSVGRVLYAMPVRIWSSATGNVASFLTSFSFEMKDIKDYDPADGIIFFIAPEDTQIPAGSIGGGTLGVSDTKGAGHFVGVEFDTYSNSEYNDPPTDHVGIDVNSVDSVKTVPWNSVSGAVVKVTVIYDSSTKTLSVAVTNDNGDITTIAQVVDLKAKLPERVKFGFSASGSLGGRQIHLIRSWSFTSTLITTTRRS
# B1: Artpocarpus integrifolia (jacalin), biotinylated (other)
# chain 1: GKAFDDGAFTGIREINLSYNKETAIGDFQVVYDLNGSPYVGQNHKSFITGFTPVKISLDFPSEYIMEVSGYTGNVSGYVVVRSLTFKTNKKTYGPYGVTSGTPFNLPIENGLIVGFKGSIGYWLDYFSMYLSL
# chain 2: NEQSGKSQTVIVGSWGAKVS
# B2: DiT33, native 31-33 kDa glycoprotein of Dirofilaria immitis (other)
# chain: SVINRHNKRFAGFSVAGIGGTAGCVVVDNKLFANSFYLRDLTTEEQRELAQYVEDSNQYKEEVKTSLEERRKGWQLARHGEKDAKVLSSLAEKKFPKPPKKPSFCSAGDTTQYYFDGCMVQNNKIYVGRMYVRDLTSDEINQLKTFDAKMTAYQKYLSSSIQQQVDSLFGDKSNLFNLFTDTRHETSSQPSDATTISTTTQAPVEPPETPHFCIAIY
# notes: also called doublet of 31 and 33 kDa; D. immitis homolog of Ov33
# B3: Wheat germ agglutinin (WGA), biotinylated (other)
# chain: QRCGEQGSNMECPNNLCCSQYGYCGMGGDYCGKGCQNGACWTSKRCGSQAGGATCTNNQCCSQYGYCGFGAEYCGAGCQGGPCRADIKCGSQAGGKLCPNNLCCSQWGFCGLGSEFCGGGCQSGACSTDKPCGKDAGGRVCTNNYCCSKWGSCGIGPGYCGAGCQSGGCDG
# notes: Lectin
# B4: Ov33, native 31-33 kDa antigen of Onchocerca volvulus adult worms (other)
# chain: GVVKRYNKRFAGFNVAGIGGNAGCVVVDNKLFANSFFLRELTTEEQRELAQYIEDSNRYKEEVKESLEERRKGWQLARDGKEDSKVLSALAEKKLPKPPKKPSFCSAGDTTQYYFDGCMVQNDKIYVGRAYVRDLTPDEVTQLKTFDAKMTAYQKYLSSTIQKQVDSLFGEKSNLFNLFADTRTEATSQASDDATAGATTTQAPVEAPEPPHFCVAIY
# What was measured:
# [1] = target: B2; assay: lectin blot, biotinylated lectin 20 µg/ml
# [2] = target: B4; assay: lectin blot, biotinylated lectin 20 µg/ml
# [3] = target: T1, Erythrina cristagalli lectin (ECL), …; assay: lectin blot of affinity purified antigen
# [4] = target: T2, Peanut agglutinin (PNA), biotinylated; assay: lectin blot of affinity purified antigen
# [5] = target: T3, Phaseolus vulgaris erthroagglutinin (PHA-E), biotinylated (Phaseolus vulgaris, UniProt P05088 22-275); assay: lectin blot of affinity purified antigen
# T3 construct: Lectin
# [6] = target: T4, Soybean agglutinin (SBA), biotinylated (UniProt P05046 33-285); assay: lectin blot of affinity purified antigen
# T4 construct: Lectin
# T4 sequence (P05046 33-285 limits assumed): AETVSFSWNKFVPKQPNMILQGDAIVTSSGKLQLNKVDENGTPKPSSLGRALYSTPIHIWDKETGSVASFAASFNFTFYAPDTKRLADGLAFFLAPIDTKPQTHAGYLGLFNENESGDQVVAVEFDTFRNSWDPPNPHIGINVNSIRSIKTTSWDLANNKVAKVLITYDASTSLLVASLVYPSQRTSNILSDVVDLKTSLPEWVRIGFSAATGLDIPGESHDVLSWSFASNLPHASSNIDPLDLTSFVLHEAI
# [7] = target: T5, Concanavilin A (Con-A), biotinylated (UniProt P02866 30-281); assay: lectin blot of affinity purified antigen
# T5 construct: Lectin
# [8] = target: B2; assay: lectin blot of affinity purified antigen
# [9] = target: B4; assay: lectin blot of affinity purified antigen
Binder,binding result [1],binding result [2],binding result [3],binding result [4],binding result [5],binding result [6],binding result [7],binding result [8],binding result [9]
B1,binds,binds,,,,,,,
B2,,,no binding (tested: 20 µg/ml),no binding (tested: 20 µg/ml),no binding (tested: 20 µg/ml),no binding (tested: 20 µg/ml),no binding (tested: 20 µg/ml),,
B3,,,,,,,,no binding (tested: 20 µg/ml),no binding (tested: 20 µg/ml)
B4,,,no binding (tested: 20 µg/ml),no binding (tested: 20 µg/ml),no binding (tested: 20 µg/ml),no binding (tested: 20 µg/ml),no binding (tested: 20 µg/ml),,
